Reference: PMC7801617 (2021)
No end group written: not given here.

T1: talin-1 R7–R8 fragment, wildtype (residues 1355–1652) (mouse, UniProt P26039 1355-1652)
T1 chain: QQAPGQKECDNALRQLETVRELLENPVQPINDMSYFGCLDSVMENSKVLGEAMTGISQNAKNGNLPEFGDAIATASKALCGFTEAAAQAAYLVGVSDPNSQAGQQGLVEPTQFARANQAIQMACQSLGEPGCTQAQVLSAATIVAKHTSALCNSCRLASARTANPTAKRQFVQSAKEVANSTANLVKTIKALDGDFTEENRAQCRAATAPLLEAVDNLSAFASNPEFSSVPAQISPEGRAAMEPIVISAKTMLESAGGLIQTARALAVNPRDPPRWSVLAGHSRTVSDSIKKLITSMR


Assays:
Assay in all cases: FP
[1] = target: talin-1 R7–R8 fragment (residues 1355–1652) with mutation Y1389C (mouse, UniProt P26039 1355-1652, Y1389C)
Sequence of talin-1 R7–R8 fragment (residues 1355–1652) with mutation Y1389C (P26039 1355-1652 Y1389C): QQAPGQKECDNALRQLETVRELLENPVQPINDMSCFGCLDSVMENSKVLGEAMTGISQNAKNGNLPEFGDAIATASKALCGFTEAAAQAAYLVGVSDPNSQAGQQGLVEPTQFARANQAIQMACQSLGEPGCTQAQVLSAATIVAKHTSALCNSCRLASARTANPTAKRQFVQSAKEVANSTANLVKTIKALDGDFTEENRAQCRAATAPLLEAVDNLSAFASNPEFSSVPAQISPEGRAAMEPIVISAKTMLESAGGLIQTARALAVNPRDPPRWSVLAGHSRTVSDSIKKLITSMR

[2] = target: T1, talin-1 R7–R8 fragment, wildtype …
[3] = target: talin-1 R7–R8 fragment (residues 1355–1652) with mutation R1368W (mouse, UniProt P26039 1355-1652, R1368W)
Sequence of talin-1 R7–R8 fragment (residues 1355–1652) with mutation R1368W (P26039 1355-1652 R1368W): as the sequence (P26039 1355-1652 Y1389C) above, with R14W, C35Y counted along it

Row | Kd [1] [nM] | Kd [2] [nM] | Kd [3] [nM] | Binder
1 | 350 | 350 | 390 | PYFVETPYGFQLDLDFVKYVDDIQKGNTIKKLNIQKRRKC (BODIPY or Fluorescein dye coupled via the C-terminal cysteine residue) [KANK1 (30–68) peptide]
2 | 3600 | 3600 | 3300 | SEDIDQMFSTLLGEMDLLTQSLGVDTC (also: BODIPY or Fluorescein dye coupled via C-terminal Cys) [RIAM (4–30) peptide]
